According to patent US8624002B2, “Prostaglandin E2 binding proteins and uses thereof” (AbbVie, Inc., priority 2008, dated 2014):
Residue numbers refer to the chain shown, from its start.

B1: Hu2B5.3: humanized 2B5-8.0; VH SEQ ID NO 64, VL SEQ ID NO 65 (antibody, V domains shown)
VH: EVQLVQSGAEVKKPGASVKVSCKASGYTFTKYWLGWVRQAPGQGLEWIGDIYPGYDYTHYNEKFKDRATLTVDTSTSTAYMELRSLRSDDTAVYYCARSDGSSTYWGQGTLVTVSS
VL: DVLMTQTPLSLPVTPGEPASISCTSSQNIVHSNGNTYLEWYLQKPGQSPQLLIYKVSNRFSGVPDRFSGSGSGTDFTLKISRVEAEDVGVYYCFQVSHVPYTFGGGTKVEIKR
B2: Hu2B5.4: humanized 2B5-8.0; VH SEQ ID NO 66, VL SEQ ID NO 67 (antibody, V domains shown)
VH: B1 VH with R84S
VL: B1 VL
B3: Hu2B5.8: humanized 2B5-8.0; VH SEQ ID NO 74, VL SEQ ID NO 75 (antibody, V domains shown)
VH: B1 VH with I48M, A68V, V72T, R84S
VL: B1 VL
B4: Hu2B5.1: humanized 2B5-8.0; VH SEQ ID NO 60, VL SEQ ID NO 61 (antibody, V domains shown)
VH: B1 VH
VL: B1 VL with L3V
B5: Hu2B5.2: humanized 2B5-8.0; VH SEQ ID NO 62, VL SEQ ID NO 63 (antibody, V domains shown)
VH: B1 VH with R84S
VL: B1 VL with L3V
B6: Hu2B5.6: humanized 2B5-8.0; VH SEQ ID NO 70, VL SEQ ID NO 71 (antibody, V domains shown)
VH: B1 VH with I48M, A68V, V72T, R84S
VL: B1 VL with L3V
B7: 2B5-8.0: recombinant anti-PGE2 antibody from solved 2B5 sequence; VH SEQ ID NO 42, VL SEQ ID NO 43 (antibody, V domains shown)
VH: QVQLQQSGPELVRPGSSVKISCKASGYTFTKYWLGWVKQRPGHGLEWIGDIYPGYDYTHYNEKFKDKATLTVDTSSSTAYMQLSSLTSEDSAIYYCARSDGSSTYWGQGTLVTVSA
VL: B1 VL with T14S, P15L, E17D, P18Q, K44R, Q50K, D75V, V88L, V109L

target: not listed separately; assay: Biotin-PGE2 ELISA (PGE2-biotinamide binding to captured IgG); settings: not given

EC50	Molecule
59 pM	B1
57 pM	B2
87 pM	B3
63 pM	B4
55 pM	B5
89 pM	B6

test system: not listed separately; assay: Accelerated stability screening monitored by SEC; type: physicochemical; settings: SEC, 7 days storage at 50° C.
Method: Size exclusion chromatography was used to separate proteins based on size. Proteins are carried in an aqueous mobile phase and through a porous stationary phase resin packed in a column. The retention time in the column is a function of the hydrodynamic size of the protein and the size of the pores in the packed resin bed. Smaller molecules can penetrate into smaller pores in the resin and are retained longer than larger molecules. Upon elution from the column the proteins are detected by UV absorbance. The SEC method used a TSK gel guard (TOSOH Biosciences, Montgomeryville, Pa., cat. no. 08543) and a TSK gel G3000SWxL (TOSOH Biosciences, Montgomeryville, Pa., cat. no. 08541). The mobile phase was 100 mM Na2HPO4, 200 mM Na2SO4, pH 7.0. The flow rate was 0.3 mL/minute. Injection volume was 20 μL of 1 mg/mL sample. The column temperature was room temperature. The autosampler temperature was 2-8° C. The total run time was 50 minutes. The detection was based on UV absorbance at 214 nm wavelength, with band width set at 8 nm, using reference wavelength at 360 nm with band width 100 nm.
(§1) The stability of a series of clones (i.e., anti-PGE2 antibodies) of the parent anti-PGE2 antibody was assessed by using intrinsic thermodynamic clone stability determination using DSC (0.79 mg/mL clone concentration, formulated at pH 6 in a 10 mM citrate, 10 mM phosphate buffer) and by accelerated stability screening (0.79 mg/mL clone concentration, formulated at pH 6 in a 10 mM citrate, 10 mM phosphate buffer, for 7 days at 50° C.) where clone stability was monitored with SEC (Table 15).

Molecule	Aggregate (%)	Fragment (%)	Monomer (%)
B1	2.6042%	5.044%	92.3518%
B2	2.1689%	6.5423%	91.2889%
B3	2.5144%	4.184%	93.3016%
B4	2.5611%	6.3675%	91.0715%
B5	2.1753%	4.6755%	93.1491%
B6	2.1577%	4.0253%	93.817%

same assay, conditions: SEC, start of stability study

Molecule	Fragment (%)	Monomer (%)
B1	3.6853%	94.1987%
B2	3.2146%	94.5513%
B3	3.2904%	94.5969%
B4	4.4044%	93.7885%
B5	3.3025%	94.8516%
B6	2.7275%	95.446%

same assay, conditions: SEC, start of stability study; 0.79 mg/mL, pH 6

Molecule	Aggregate (%)
B1	2.116%
B2	2.234%
B3	2.1126%
B4	1.8071%
B5	1.846%
B6	1.8265%

test system: PGE2 induced Ca++ influx in HEK293 Gα16 cells stably transfected with human EP4 receptor; assay: EP4 bioassay: PGE2 induced Ca++ flux (FLIPR); type: cell-based; settings: not given
Method: The ability of anti-PGE2 antibody to inhibit cellular response of PGE2 in vitro was determined in a Ca^++ flux assay in HEK293 Gα16 cells (Abbott Bioresearch Center, Worcester, Mass.) stably transfected with human EP4 receptor. In brief, an expression plasmid encoding one of the four human PGE2 receptors, EP4, and an expression plasmid encoding Gα16, were co-transfected into human embryonic kidney cell line 293 cells (ATCC# CRL1573, Manassas, Va.). The stable clones co-expressing both human EP4 and Gα16 protein were selected using standard methods (Joseph Sambrook and David W. Russell. Molecular Cloning: A Laboratory Manual Publisher. Published by Cold Spring Harbor Laboratory Press, 2001) and used for the EP4 bioassay. The HEK293 Gα16 cells were plated in black/clear poly-D-lysine plates (Corning #3667, Corning, N.Y.) and incubated with a Ca^++-sensitive dye (Molecular Devices, Sunnyvale, Calif.) for 90 minutes. Stock PGE2 (in 200 proof ethanol) was diluted with FLIPR buffer [containing 1×HBSS (Invitrogen Carlsbad, Calif.), 20 mM HEPES (Invitrogen Carlsbad, Calif.), 0.1% BSA (Sigma, St. Louis, Mo.) and 2.5 mM Probenecid (Sigma, St. Louis, Mo.)]. Anti-PGE2 antibodies or isotype matched control antibodies were also pre-diluted in FLIPR buffer. 25 μl of PGE2 or pre-incubated PGE2/antibody mixture was added to the wells pre-plated with cells. The dose response of PGE2 was determined on a serial titration of PGE2 and using FLIPR1 or Tetra (Molecular Devices, Sunnyvale, Calif.) and EC50 was determined using GraphPad Prism 5 (GraphPad Software, La Jolla, Calif.). […] Ca^++ flux was monitored using FLIPR1 and data was analyzed using GraphPad Prism 5 (GraphPad Software, La Jolla, Calif.).

Molecule	inhibition of PGE2 induced calcium influx in EP4 bioassay
B7	potently inhibited

same assay, conditions: PGE2 25 pm; read-out: IC50 (pM) @ PGE2 25 pm Cellular Potency in EP4 assay

Molecule	IC50
B1	47 pM
B2	40 pM
B3	78 pM
B4	55 pM
B5	55 pM
B6	52 pM

same assay, conditions: read-out: PGE2 Neutralization Potency in Cellular EP4 assay (IC50)

Molecule	IC50
B7	44 pM

test system: not listed separately; assay: Intrinsic thermodynamic stability by DSC; type: physicochemical; settings: 0.79 mg/mL, pH 6, 10 mM citrate, 10 mM phosphate
Method: The thermal stability of the anti-PGE2 antibodies was assessed using a DSC instrument. The DSC instrument used was an automated VP-DSC equipment with Capillary Cell (Microcal, GE Healthcare Ltd./Microcal, Buckinghamshire, UK). Unfolding of molecules was studied applying a 1° C./minute scan rate over a 25° C.-95° C. temperature range for samples at 1 mg/mL. Additional measurement parameters applied were a fitting period of 16 seconds, a pre-scan wait time of 10 minutes, and measurements were performed in none-feedback mode. Per individual measurement, 420 μL of sample/blank were filled into the DSC measurement sample holder, with a plate fill scheme as provided below. The thermograms obtained were fitted to a non two state model to obtain the midpoint temperatures and enthalpies of the different transitions.
as §1

Molecule	Tm1 (° C.)
B1	72.67 °C
B2	71.095 °C
B3	72.96 °C
B4	72.835 °C
B5	72.845 °C
B6	73.035 °C

same assay, conditions: same buffer

Molecule	Tm2 (° C.)	Tm3 (° C.)
B1	72.96 °C	82.67 °C
B2	72.41 °C	82.58 °C
B3	75.33 °C	82.83 °C
B4	75.02 °C	82.785 °C
B5	75.08 °C	82.67 °C
B6	75.585 °C	82.95 °C
